Source: the supplement of paper PMC5998384

Assays:
[1] = system: HeLa Kyoto; assay: solubility in G1/S (NP-40 vs SDS abundance) (log2 ratio); higher = more soluble; details: cell cycle stage: G1/S
[2] = system: HeLa Kyoto; assay: melting temperature (median over replicates), in situ; higher = more thermally stable
[3] = system: HeLa Kyoto; assay: solubility change mitosis vs G1/S (difference of NP-40 vs SDS log2 ratios) (log2 ratio difference); higher = more soluble in mitosis
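Wherever melting temperature (median over replicates), in situ is given: HeLa Kyoto cells synchronized by double thymidine or nocodazole block, proteins quantified by TMT10plex mass spectrometry, three independent biological replicates.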
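Wherever solubility change mitosis vs G1/S (difference of NP-40 vs SDS log2 ratios) is given: synchronized HeLa Kyoto cells (double thymidine block for G1/S, nocodazole release for mitosis), protein amounts in NP-40 versus SDS lysates quantified by mass spectrometry, three biological replicates.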
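Wherever solubility in G1/S (NP-40 vs SDS abundance) is given: HeLa Kyoto cells arrested at G1/S by double thymidine block, proteins quantified by TMT10plex mass spectrometry in mild NP-40 versus SDS extracts, three biological replicates.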

Sequence of WNK2 (chain, as listed by the source): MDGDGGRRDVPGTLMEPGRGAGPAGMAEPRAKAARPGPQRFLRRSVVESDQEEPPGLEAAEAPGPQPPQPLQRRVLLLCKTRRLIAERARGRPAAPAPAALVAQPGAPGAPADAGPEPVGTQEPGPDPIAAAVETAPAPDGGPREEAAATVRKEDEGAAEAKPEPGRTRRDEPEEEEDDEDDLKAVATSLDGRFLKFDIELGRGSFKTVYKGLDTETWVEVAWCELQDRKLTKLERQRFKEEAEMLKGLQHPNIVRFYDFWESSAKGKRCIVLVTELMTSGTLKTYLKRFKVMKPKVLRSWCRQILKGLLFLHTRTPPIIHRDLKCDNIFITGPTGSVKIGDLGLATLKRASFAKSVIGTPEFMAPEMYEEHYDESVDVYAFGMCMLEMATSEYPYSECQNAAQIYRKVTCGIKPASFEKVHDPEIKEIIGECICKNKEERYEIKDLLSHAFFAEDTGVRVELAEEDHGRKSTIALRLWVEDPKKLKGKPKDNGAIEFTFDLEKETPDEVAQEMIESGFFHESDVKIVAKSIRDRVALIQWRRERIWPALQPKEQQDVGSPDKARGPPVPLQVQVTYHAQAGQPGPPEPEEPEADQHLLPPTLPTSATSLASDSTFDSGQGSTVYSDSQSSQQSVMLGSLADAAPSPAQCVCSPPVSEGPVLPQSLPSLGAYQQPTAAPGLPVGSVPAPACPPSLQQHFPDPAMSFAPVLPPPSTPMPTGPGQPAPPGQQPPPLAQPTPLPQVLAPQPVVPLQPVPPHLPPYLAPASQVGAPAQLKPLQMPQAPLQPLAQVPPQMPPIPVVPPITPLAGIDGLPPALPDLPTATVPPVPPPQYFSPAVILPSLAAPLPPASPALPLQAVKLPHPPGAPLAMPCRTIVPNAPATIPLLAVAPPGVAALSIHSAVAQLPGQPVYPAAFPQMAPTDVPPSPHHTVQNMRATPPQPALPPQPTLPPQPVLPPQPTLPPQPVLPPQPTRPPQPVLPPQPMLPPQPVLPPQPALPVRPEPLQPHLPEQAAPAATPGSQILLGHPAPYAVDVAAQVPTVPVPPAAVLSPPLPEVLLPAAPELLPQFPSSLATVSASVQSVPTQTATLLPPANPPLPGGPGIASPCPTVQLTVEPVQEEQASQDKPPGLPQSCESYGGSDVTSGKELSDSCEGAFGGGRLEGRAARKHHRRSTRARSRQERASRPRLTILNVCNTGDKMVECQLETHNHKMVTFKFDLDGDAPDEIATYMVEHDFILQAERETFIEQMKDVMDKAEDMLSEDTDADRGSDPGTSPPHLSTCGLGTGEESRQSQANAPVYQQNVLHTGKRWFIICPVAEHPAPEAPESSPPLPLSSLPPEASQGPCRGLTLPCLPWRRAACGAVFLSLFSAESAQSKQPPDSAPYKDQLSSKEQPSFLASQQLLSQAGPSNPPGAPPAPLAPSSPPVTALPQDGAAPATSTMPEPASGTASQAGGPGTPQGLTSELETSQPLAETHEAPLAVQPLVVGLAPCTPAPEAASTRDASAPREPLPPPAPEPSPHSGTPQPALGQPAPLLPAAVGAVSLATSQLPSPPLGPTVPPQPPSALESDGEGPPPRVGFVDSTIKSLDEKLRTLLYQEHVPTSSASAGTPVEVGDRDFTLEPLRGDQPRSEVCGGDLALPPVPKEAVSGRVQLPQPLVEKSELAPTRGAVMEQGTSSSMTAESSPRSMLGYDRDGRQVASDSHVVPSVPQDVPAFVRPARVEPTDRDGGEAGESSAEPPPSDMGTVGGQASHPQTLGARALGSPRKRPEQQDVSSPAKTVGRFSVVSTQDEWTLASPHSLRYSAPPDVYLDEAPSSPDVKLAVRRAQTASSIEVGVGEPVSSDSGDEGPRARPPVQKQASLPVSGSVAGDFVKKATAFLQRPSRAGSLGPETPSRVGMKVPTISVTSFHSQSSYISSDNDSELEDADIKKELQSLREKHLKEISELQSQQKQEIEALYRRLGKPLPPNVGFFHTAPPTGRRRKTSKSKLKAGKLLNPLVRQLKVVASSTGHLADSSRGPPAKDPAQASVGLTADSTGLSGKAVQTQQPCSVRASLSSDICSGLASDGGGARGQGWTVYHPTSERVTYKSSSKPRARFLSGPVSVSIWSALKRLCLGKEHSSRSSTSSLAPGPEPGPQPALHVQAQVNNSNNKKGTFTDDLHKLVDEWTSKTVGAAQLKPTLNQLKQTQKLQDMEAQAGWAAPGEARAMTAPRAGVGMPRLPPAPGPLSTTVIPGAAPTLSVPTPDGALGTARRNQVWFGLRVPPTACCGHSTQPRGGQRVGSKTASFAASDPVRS
Sequence of GNG12 (chain, as listed by the source): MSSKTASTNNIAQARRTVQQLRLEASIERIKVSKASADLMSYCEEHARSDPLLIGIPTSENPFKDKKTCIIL
Sequence of DNAJC19 (chain, as listed by the source): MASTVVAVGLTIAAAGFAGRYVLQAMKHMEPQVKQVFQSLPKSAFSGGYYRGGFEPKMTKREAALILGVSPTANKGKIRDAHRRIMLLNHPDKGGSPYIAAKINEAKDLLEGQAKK

Row | Substance | solubility in G1/S (log2) [1] | melting temperature ([2]; cell cycle stage: mitosis) | solubility change mitosis (log2) [3] | melting temperature ([2]; cell cycle stage: G1/S)
1 | WNK2 | 0.2 | 52.6 °C | -0.0197 | 
2 | MGQQVGRVGEAPGLQQPQPRGIRGSSAARPSGRRRDPAGRTTETGFNIFTQHDHFASCVEDGFEGDKTGGSSPEALHRPYGCDVEPQALNEAIRWSSKENLLGATESDPNLFVALYDFVASGDNTLSITKGEKLRVLGYNQNGEWSEVRSKNGQGWVPSNYITPVNSLEKHSWYHGPVSRSAAEYLLSSLINGSFLVRESESSPGQLSISLRYEGRVYHYRINTTADGKVYVTAESRFSTLAELVHHHSTVADGLVTTLHYPAPKCNKPTVYGVSPIHDKWEMERTDITMKHKLGGGQYGEVYVGVWKKYSLTVAVKTLKEDTMEVEEFLKEAAVMKEIKHPNLVQLLGVCTLEPPFYIVTEYMPYGNLLDYLRECNREEVTAVVLLYMATQISSAMEYLEKKNFIHRDLAARNCLVGENHVVKVADFGLSRLMTGDTYTAHAGAKFPIKWTAPESLAYNTFSIKSDVWAFGVLLWEIATYGMSPYPGIDLSQVYDLLEKGYRMEQPEGCPPKVYELMRACWKWSPADRPSFAETHQAFETMFHDSSISEEVAEELGRAASSSSVVPYLPRLPILPSKTRTLKKQVENKENIEGAQDATENSASSLAPGFIRGAQASSGSPALPRKQRDKSPSSLLEDAKETCFTRDRKGGFFSSFMKKRNAPTPPKRSSSFREMENQPHKKYELTGNFSSVASLQHADGFSFTPAQQEANLVPPKCYGGSFAQRNLCNDDGGGGGGSGTAGGGWSGITGFFTPRLIKKTLGLRAGKPTASDDTSKPFPRSNSTSSMSSGLPEQDRMAMTLPRNCQRSKLQLERTVSTSSQPEENVDRANDMLPKKSEESAAPSRERPKAKLLPRGATALPLRTPSGDLAITEKDPPGVGVAGVAAAPKGKEKNGGARLGMAGVPEDGEQPGWPSPAKAAPVLPTTHNHKVPVLISPTLKHTPADVQLIGTDSQGNKFKLLSEHQVTSSGDKDRPRRVKPKCAPPPPPVMRLLQHPSICSDPTEEPTALTAGQSTSETQEGGKKAALGAVPISGKAGRPVMPPPQVPLPTSSISPAKMANGTAGTKVALRKTKQAAEKISADKISKEALLECADLLSSALTEPVPNSQLVDTGHQLLDYCSGYVDCIPQTRNKFAFREAVSKLELSLQELQVSSAAAGVPGTNPVLNNLLSCVQEISDVVQR [ABL2] | 0.0755 | 49.1 °C | -0.139 | 49.2 °C
3 | MAAAGARPVELGFAESAPAWRLRSEQFPSKVGGRPAWLGAAGLPGPQALACELCGRPLSFLLQVYAPLPGRPDAFHRCIFLFCCREQPCCAGLRVFRNQLPRKNDFYSYEPPSENPPPETGESVCLQLKSGAHLCRVCGCLGPKTCSRCHKAYYCSKEHQTLDWRLGHKQACAQPDHLDHIIPDHNFLFPEFEIVIETEDEIMPEVVEKEDYSEIIGSMGEALEEELDSMAKHESREDKIFQKFKTQIALEPEQILRYGRGIAPIWISGENIPQEKDIPDCPCGAKRILEFQVMPQLLNYLKADRLGKSIDWGILAVFTCAESCSLGTGYTEEFVWKQDVTDTP [PDCD2] | -0.116 | 48.3 °C | -0.0555 | 48.5 °C
4 | MGEQPIFSTRAHVFQIDPNTKKNWVPTSKHAVTVSYFYDSTRNVYRIISLDGSKAIINSTITPNMTFTKTSQKFGQWADSRANTVYGLGFSSEHHLSKFAEKFQEFKEAARLAKEKSQEKMELTSTPSQESAGGDLQSPLTPESINGTDDERTPDVTQNSEPRAEPTQNALPFSHSSAISKHWEAELATLKGNNAKLTAALLESTANVKQWKQQLAAYQEEAERLHKRVTELECVSSQANAVHTHKTELNQTIQELEETLKLKEEEIERLKQEIDNARELQEQRDSLTQKLQEVEIRNKDLEGQLSDLEQRLEKSQNEQEAFRNNLKTLLEILDGKIFELTELRDNLAKLLECS [HOMER1] | 0.426 | 51.9 °C | 0.185 | 51 °C
5 | MAENHCELLSPARGGIGAGLGGGLCRRCSAGLGALAQRPGSVSKWVRLNVGGTYFLTTRQTLCRDPKSFLYRLCQADPDLDSDKDETGAYLIDRDPTYFGPVLNYLRHGKLVINKDLAEEGVLEEAEFYNITSLIKLVKDKIRERDSKTSQVPVKHVYRVLQCQEEELTQMVSTMSDGWKFEQLVSIGSSYNYGNEDQAEFLCVVSKELHNTPYGTASEPSEKAKILQERGSRM [KCTD5] | 0.136 | 57.5 °C | -0.0362 | 56.7 °C
6 | MTTAARPTFEPARGGRGKGEGDLSQLSKQYSSRDLPSHTKIKYRQTTQDAPEEVRNRDFRRELEERERAAAREKNRDRPTREHTTSSSVSKKPRLDQIPAANLDADDPLTDEEDEDFEEESDDDDTAALLAELEKIKKERAEEQARKEQEQKAEEERIRMENILSGNPLLNLTGPSQPQANFKVKRRWDDDVVFKNCAKGVDDQKKDKRFVNDTLRSEFHKKFMEKYIK [CWC15] | 0.0823 | 55.1 °C | 0.681 | 55.4 °C
7 | MELIQDTSRPPLEYVKGVPLIKYFAEALGPLQSFQARPDDLLINTYPKSGTTWVSQILDMIYQGGDLEKCNRAPIYVRVPFLEVNDPGEPSGLETLKDTPPPRLIKSHLPLALLPQTLLDQKVKVVYVARNPKDVAVSYYHFHRMEKAHPEPGTWDSFLEKFMAGEVSYGSWYQHVQEWWELSRTHPVLYLFYEDMKENPKREIQKILEFVGRSLPEETMDFMVQHTSFKEMKKNPMTNYTTVPQELMDHSISPFMRKGMAGDWKTTFTVAQNERFDADYAEKMAGCSLSFRSEL [SULT1A3] | 0.432 | 49.2 °C | -0.174 | 48.5 °C
8 | DNAJC19 | -0.0616 | 53.5 °C | 0.348 | 53.4 °C
9 | MAAVFDLDLETEEGSEGEGEPELSPADACPLAELRAAGLEPVGHYEEVELTETSVNVGPERIGPHCFELLRVLGKGGYGKVFQVRKVQGTNLGKIYAMKVLRKAKIVRNAKDTAHTRAERNILESVKHPFIVELAYAFQTGGKLYLILECLSGGELFTHLEREGIFLEDTACFYLAEITLALGHLHSQGIIYRDLKPENIMLSSQGHIKLTDFGLCKESIHEGAVTHTFCGTIEYMAPEILVRSGHNRAVDWWSLGALMYDMLTGSPPFTAENRKKTMDKIIRGKLALPPYLTPDARDLVKKFLKRNPSQRIGGGPGDAADVQRHPFFRHMNWDDLLAWRVDPPFRPCLQSEEDVSQFDTRFTRQTPVDSPDDTALSESANQAFLGFTYVAPSVLDSIKEGFSFQPKLRSPRRLNSSPRAPVSPLKFSPFEGFRPSPSLPEPTELPLPPLLPPPPPSTTAPLPIRPPSGTKKSKRGRGRPGR [RPS6KB2] | -0.0277 | 50.9 °C | 0.0325 | 51.3 °C
10 | MATSTGRWLLLRLALFGFLWEASGGLDSGASRDDDLLLPYPRARARLPRDCTRVRAGNREHESWPPPPATPGAGGLAVRTFVSHFRDRAVAGHLTRAVEPLRTFSVLEPGGPGGCAARRRATVEETARAADCRVAQNGGFFRMNSGECLGNVVSDERRVSSSGGLQNAQFGIRRDGTLVTGYLSEEEVLDTENPFVQLLSGVVWLIRNGSIYINESQATECDETQETGSFSKFVNVISARTAIGHDRKGQLVLFHADGQTEQRGINLWEMAEFLLKQDVVNAINLDGGGSATFVLNGTLASYPSDHCQDNMWRCPRQVSTVVCVHEPRCQPPDCHGHGTCVDGHCQCTGHFWRGPGCDELDCGPSNCSQHGLCTETGCRCDAGWTGSNCSEECPLGWHGPGCQRPCKCEHHCPCDPKTGNCSVSRVKQCLQPPEATLRAGELSFFTRTAWLALTLALAFLLLISTAANLSLLLSRAERNRRLHGDYAYHPLQEMNGEPLAAEKEQPGGAHNPFKD [NAGPA] | 0.327 | 55.4 °C | -0.232 | 54.5 °C
11 | GNG12 | -1.84 | 54 °C | 0.506 | 52.4 °C
12 | MELIQDTSRPPLEYVKGVPLIKYFAEALGPLQSFQARPDDLLISTYPKSGTTWVSQILDMIYQGGDLEKCHRAPIFMRVPFLEFKAPGIPSGMETLKDTPAPRLLKTHLPLALLPQTLLDQKVKVVYVARNAKDVAVSYYHFYHMAKVHPEPGTWDSFLEKFMVGEVSYGSWYQHVQEWWELSRTHPVLYLFYEDMKENPKREIQKILEFVGRSLPEETVDFVVQHTSFKEMKKNPMTNYTTVPQEFMDHSISPFMRKGMAGDWKTTFTVAQNERFDADYAEKMAGCSLSFRSEL [SULT1A1] | 0.0556 | 49.2 °C | -0.0949 | 
13 | MAASRYRRFLKLCEEWPVDETKRGRDLGAYLRQRVAQAFREGENTQVAEPEACDQMYESLARLHSNYYKHKYPRPRDTSFSGLSLEEYKLILSTDTLEELKEIDKGMWKKLQEKFAPKGPEEDHKA [UQCC2] | 0.0537 |  | 0.507 | 45.6 °C
14 | MAAQGAAAAVAAGTSGVAGEGEPGPGENAAAEGTAPSPGRVSPPTPARGEPEVTVEIGETYLCRRPDSTWHSAEVIQSRVNDQEGREEFYVHYVGFNRRLDEWVDKNRLALTKTVKDAVQKNSEKYLSELAEQPERKITRNQKRKHDEINHVQKTYAEMDPTTAALEKEHEAITKVKYVDKIHIGNYEIDAWYFSPFPEDYGKQPKLWLCEYCLKYMKYEKSYRFHLGQCQWRQPPGKEIYRKSNISVYEVDGKDHKIYCQNLCLLAKLFLDHKTLYFDVEPFVFYILTEVDRQGAHIVGYFSKEKESPDGNNVACILTLPPYQRRGYGKFLIAFSYELSKLESTVGSPEKPLSDLGKLSYRSYWSWVLLEILRDFRGTLSIKDLSQMTSITQNDIISTLQSLNMVKYWKGQHVICVTPKLVEEHLKSAQYKKPPITVDSVCLKWAPPKHKQVKLSKK [KAT8] | -0.134 | 49.9 °C | -0.249 | 
15 | MEVEAAEARSPAPGYKRSGRRYKCLSCTKTFPNAPRAARHAATHGPADCSEEVAEVKPKPETEAKAEEASGEKVSGSAAKPRPYACPLCPKAYKTAPELRSHGRSHTGEKPFPCPECGRRFMQPVCLRVHLASHAGELPFRCAHCPKAYGALSKLKIHQRGHTGERPYACADCGKSFADPSVFRKHRRTHAGLRPYSCERCGKAYAELKDLRNHERSHTGERPFLCSECGKSFSRSSSLTCHQRIHAAQKPYRCPACGKGFTQLSSYQSHERTHSGEKPFLCPRCGRMFSDPSSFRRHQRAHEGVKPYHCEKCGKDFRQPADLAMHRRVHTGDRPFKCLQCDKTFVASWDLKRHALVHSGQRPFRCEECGRAFAERASLTKHSRVHSGERPFHCNACGKSFVVSSSLRKHERTHRSSEAAGVPPAQELVVGLALPVGVAGESSAAPAAGAGLGDPPAGLLGLPPESGGVMATQWQVVGMTVEHVECQDAGVREAPGPLEGAGEAGGEEADEKPPQFVCRECKETFSTMTLLRRHERSHPELRPFPCTQCGKSFSDRAGLRKHSRTHSSVRPYTCPHCPKAFLSASDLRKHERTHPVPMGTPTPLEPLVALLGMPEEGPA [ZNF668] | -0.985 |  | 0.453 | 
16 | MLRLQMTDGHISCTAVEFSYMSKISLNTPPGTKVKLSGIVDIKNGFLLLNDSNTTVLGGEVEHLIEKWELQRSLSKHNRSNIGTEGGPPPFVPFGQKCVSHVQVDSRELDRRKTLQVTMPVKPTNDNDEFEKQRTAAIAEVAKSKETKTFGGGGGGARSNLNMNAAGNRNREVLQKEKSTKSEGKHEGVYRELVDEKALKHITEMGFSKEASRQALMDNGNNLEAALNVLLTSNKQKPVMGPPLRGRGKGRGRIRSEDEEDLGNARPSAPSTLFDFLESKMGTLNVEEPKSQPQQLHQGQYRSSNTEQNGVKDNNHLRHPPRNDTRQPRNEKPPRFQRDSQNSKSVLEGSGLPRNRGSERPSTSSVSEVWAEDRIKCDRPYSRYDRTKDTSYPLGSQHSDGAFKKRDNSMQSRSGKGPSFAEAKENPLPQGSVDYNNQKRGKRESQTSIPDYFYDRKSQTINNEAFSGIKIEKHFNVNTDYQNPVRSNSFIGVPNGEVEMPLKGRRIGPIKPAGPVTAVPCDDKIFYNSGPKRRSGPIKPEKILESSIPMEYAKMWKPGDECFALYWEDNKFYRAEVEALHSSGMTAVVKFIDYGNYEEVLLSNIKPIQTEAWEEEGTYDQTLEFRRGGDGQPRRSTRPTQQFYQPPRARN [TDRD3] | -0.658 |  | 0.149 | 
17 | KMT2B | -0.355 |  | 0.243 | 
